Data taken from the Human Domainome abundance scans (Beltran et al. 2025).
± gives the uncertainty stated by the source.

B1: Ankyrin repeat and SOCS box protein 14, residues 532 to 572; numbered along this chain, A6NK59 (parent)
chain: RSLKHLCRLKIRKCMGRLHLRCPVFMSFLPLPNRLKAYVLY

Variants of: B1
Experiment: abundance fitness (aPCA) (normalised: wild type 0, dead -1); higher = more abundant; growth selection in yeast, the domain comes from the species named
Conditions: Homo sapiens

Q: With RSLKHLCRLKIRKCMGRLHLRCHVFMSFLPLPNRLKAYVLY as the variant, how does the abundance fitness read?
A: -0.306 ± 0.15

Q: With RSLKHLCRLKIRKCMGRLHLRCKVFMSFLPLPNRLKAYVLY as the variant, how does the abundance fitness read?
A: 0.524 ± 0.066

Q: For RSLKHLCRLKIRKCMGRLHLRCLVFMSFLPLPNRLKAYVLY, which abundance fitness is on record?
A: 0.494 ± 0.059

Q: For RSLKHLCRLKIRKCMGRLHLRCMVFMSFLPLPNRLKAYVLY, which abundance fitness is on record?
A: 0.334 ± 0.097

Q: Which abundance fitness does the source give for RSLKHLCRLKIRKCMGRLHLRCNVFMSFLPLPNRLKAYVLY here?
A: -0.049 ± 0.32

Q: For RSLKHLCRLKIRKCMGRLHLRCQVFMSFLPLPNRLKAYVLY, which abundance fitness is on record?
A: 0.407 ± 0.069

Q: Which abundance fitness does the source give for RSLKHLCRLKIRKCMGRLHLRCRVFMSFLPLPNRLKAYVLY here?
A: 0.357 ± 0.052

Q: For RSLKHLCRLKIRKCMGRLHLRCSVFMSFLPLPNRLKAYVLY, which abundance fitness is on record?
A: 0.273 ± 0.058

Q: For RSLKHLCRLKIRKCMGRLHLRCTVFMSFLPLPNRLKAYVLY, which abundance fitness is on record?
A: 0.336 ± 0.073

Q: Which abundance fitness does the source give for RSLKHLCRLKIRKCMGRLHLRCVVFMSFLPLPNRLKAYVLY here?
A: 0.384 ± 0.068

Q: With RSLKHLCRLKIRKCMGRLHLRCWVFMSFLPLPNRLKAYVLY as the variant, how does the abundance fitness read?
A: 0.321 ± 0.058

Q: With RSLKHLCRLKIRKCMGRLHLRCYVFMSFLPLPNRLKAYVLY as the variant, how does the abundance fitness read?
A: 0.283 ± 0.08

Q: Which abundance fitness does the source give for RSLKHLCRLKIRKCMGRLHLRCPCFMSFLPLPNRLKAYVLY here?
A: 0.251 ± 0.065

Q: For RSLKHLCRLKIRKCMGRLHLRCPDFMSFLPLPNRLKAYVLY, which abundance fitness is on record?
A: 0.472 ± 0.091

Q: For RSLKHLCRLKIRKCMGRLHLRCPEFMSFLPLPNRLKAYVLY, which abundance fitness is on record?
A: 0.347 ± 0.069

Q: For RSLKHLCRLKIRKCMGRLHLRCPFFMSFLPLPNRLKAYVLY, which abundance fitness is on record?
A: 0.469 ± 0.14

Q: With RSLKHLCRLKIRKCMGRLHLRCPGFMSFLPLPNRLKAYVLY as the variant, how does the abundance fitness read?
A: 0.319 ± 0.044

Q: For RSLKHLCRLKIRKCMGRLHLRCPKFMSFLPLPNRLKAYVLY, which abundance fitness is on record?
A: 0.449 ± 0.11

Q: For RSLKHLCRLKIRKCMGRLHLRCPLFMSFLPLPNRLKAYVLY, which abundance fitness is on record?
A: -0.081 ± 0.065

Q: For RSLKHLCRLKIRKCMGRLHLRCPMFMSFLPLPNRLKAYVLY, which abundance fitness is on record?
A: -0.217 ± 0.13

Q: For RSLKHLCRLKIRKCMGRLHLRCPNFMSFLPLPNRLKAYVLY, which abundance fitness is on record?
A: 0.316 ± 0.065

Q: Which abundance fitness does the source give for RSLKHLCRLKIRKCMGRLHLRCPPFMSFLPLPNRLKAYVLY here?
A: 0.137 ± 0.075

Q: For RSLKHLCRLKIRKCMGRLHLRCPQFMSFLPLPNRLKAYVLY, which abundance fitness is on record?
A: 0.242 ± 0.076

Q: Which abundance fitness does the source give for RSLKHLCRLKIRKCMGRLHLRCPRFMSFLPLPNRLKAYVLY here?
A: 0.352 ± 0.048

Q: Which abundance fitness does the source give for RSLKHLCRLKIRKCMGRLHLRCPSFMSFLPLPNRLKAYVLY here?
A: 0.308 ± 0.062

Q: Which abundance fitness does the source give for RSLKHLCRLKIRKCMGRLHLRCPTFMSFLPLPNRLKAYVLY here?
A: 0.176 ± 0.11

Q: With RSLKHLCRLKIRKCMGRLHLRCPWFMSFLPLPNRLKAYVLY as the variant, how does the abundance fitness read?
A: 0.233 ± 0.063

Q: With RSLKHLCRLKIRKCMGRLHLRCPYFMSFLPLPNRLKAYVLY as the variant, how does the abundance fitness read?
A: -0.166 ± 0.22

Q: With RSLKHLCRLKIRKCMGRLHLRCPVAMSFLPLPNRLKAYVLY as the variant, how does the abundance fitness read?
A: -0.178 ± 0.052

Q: With RSLKHLCRLKIRKCMGRLHLRCPVCMSFLPLPNRLKAYVLY as the variant, how does the abundance fitness read?
A: -0.449 ± 0.21

Q: Which abundance fitness does the source give for RSLKHLCRLKIRKCMGRLHLRCPVDMSFLPLPNRLKAYVLY here?
A: 0.197 ± 0.078

Q: With RSLKHLCRLKIRKCMGRLHLRCPVGMSFLPLPNRLKAYVLY as the variant, how does the abundance fitness read?
A: -0.048 ± 0.045

Q: For RSLKHLCRLKIRKCMGRLHLRCPVHMSFLPLPNRLKAYVLY, which abundance fitness is on record?
A: -0.447 ± 0.086

Q: With RSLKHLCRLKIRKCMGRLHLRCPVIMSFLPLPNRLKAYVLY as the variant, how does the abundance fitness read?
A: 0.316 ± 0.14

Q: With RSLKHLCRLKIRKCMGRLHLRCPVKMSFLPLPNRLKAYVLY as the variant, how does the abundance fitness read?
A: 0.089 ± 0.076

Q: For RSLKHLCRLKIRKCMGRLHLRCPVLMSFLPLPNRLKAYVLY, which abundance fitness is on record?
A: 0.19 ± 0.067

Q: Which abundance fitness does the source give for RSLKHLCRLKIRKCMGRLHLRCPVMMSFLPLPNRLKAYVLY here?
A: -0.042 ± 0.073

Q: With RSLKHLCRLKIRKCMGRLHLRCPVPMSFLPLPNRLKAYVLY as the variant, how does the abundance fitness read?
A: 0.074 ± 0.076

Q: For RSLKHLCRLKIRKCMGRLHLRCPVQMSFLPLPNRLKAYVLY, which abundance fitness is on record?
A: -0.123 ± 0.11

Q: Which abundance fitness does the source give for RSLKHLCRLKIRKCMGRLHLRCPVRMSFLPLPNRLKAYVLY here?
A: -0.116 ± 0.051

Q: With RSLKHLCRLKIRKCMGRLHLRCPVSMSFLPLPNRLKAYVLY as the variant, how does the abundance fitness read?
A: -0.095 ± 0.054

Q: Which abundance fitness does the source give for RSLKHLCRLKIRKCMGRLHLRCPVTMSFLPLPNRLKAYVLY here?
A: -0.243 ± 0.071

Q: Which abundance fitness does the source give for RSLKHLCRLKIRKCMGRLHLRCPVVMSFLPLPNRLKAYVLY here?
A: 0.033 ± 0.059

Q: With RSLKHLCRLKIRKCMGRLHLRCPVFASFLPLPNRLKAYVLY as the variant, how does the abundance fitness read?
A: -0.08 ± 0.057

Q: With RSLKHLCRLKIRKCMGRLHLRCPVFCSFLPLPNRLKAYVLY as the variant, how does the abundance fitness read?
A: -0.013 ± 0.19

Q: With RSLKHLCRLKIRKCMGRLHLRCPVFDSFLPLPNRLKAYVLY as the variant, how does the abundance fitness read?
A: -0.004 ± 0.085

Q: For RSLKHLCRLKIRKCMGRLHLRCPVFESFLPLPNRLKAYVLY, which abundance fitness is on record?
A: 0.194 ± 0.059

Q: For RSLKHLCRLKIRKCMGRLHLRCPVFGSFLPLPNRLKAYVLY, which abundance fitness is on record?
A: 0.072 ± 0.044

Q: Which abundance fitness does the source give for RSLKHLCRLKIRKCMGRLHLRCPVFHSFLPLPNRLKAYVLY here?
A: 0.113 ± 0.17

Q: Which abundance fitness does the source give for RSLKHLCRLKIRKCMGRLHLRCPVFISFLPLPNRLKAYVLY here?
A: -0.038 ± 0.14

Q: With RSLKHLCRLKIRKCMGRLHLRCPVFKSFLPLPNRLKAYVLY as the variant, how does the abundance fitness read?
A: -0.026 ± 0.051

Q: For RSLKHLCRLKIRKCMGRLHLRCPVFLSFLPLPNRLKAYVLY, which abundance fitness is on record?
A: 0.078 ± 0.051

Q: With RSLKHLCRLKIRKCMGRLHLRCPVFPSFLPLPNRLKAYVLY as the variant, how does the abundance fitness read?
A: -0.002 ± 0.068

Q: Which abundance fitness does the source give for RSLKHLCRLKIRKCMGRLHLRCPVFQSFLPLPNRLKAYVLY here?
A: -0.154 ± 0.064

Q: Which abundance fitness does the source give for RSLKHLCRLKIRKCMGRLHLRCPVFRSFLPLPNRLKAYVLY here?
A: -0.047 ± 0.051

Q: Which abundance fitness does the source give for RSLKHLCRLKIRKCMGRLHLRCPVFSSFLPLPNRLKAYVLY here?
A: 0.018 ± 0.053

Q: Which abundance fitness does the source give for RSLKHLCRLKIRKCMGRLHLRCPVFTSFLPLPNRLKAYVLY here?
A: -0.002 ± 0.053

Q: With RSLKHLCRLKIRKCMGRLHLRCPVFWSFLPLPNRLKAYVLY as the variant, how does the abundance fitness read?
A: 0.118 ± 0.058

Q: With RSLKHLCRLKIRKCMGRLHLRCPVFYSFLPLPNRLKAYVLY as the variant, how does the abundance fitness read?
A: -0.207 ± 0.23

Q: With RSLKHLCRLKIRKCMGRLHLRCPVFMAFLPLPNRLKAYVLY as the variant, how does the abundance fitness read?
A: -0.059 ± 0.058

Q: With RSLKHLCRLKIRKCMGRLHLRCPVFMCFLPLPNRLKAYVLY as the variant, how does the abundance fitness read?
A: -0.536 ± 0.33
